Experimental data: patent publication US20160206741

System: T1, GRRRGK (SEQ ID NO: 1) oligopeptide crosslink within P(MAA-co-NVP) microgels
T1 sequence: GRRRGK

Substance: trypsin
- relative turbidity of microgel solutions over time: reduced relative turbidity as a function of time and trypsin concentration
- trypsin activity on the BAEE substrate (absorbance at 253 nm) after 90 min with 0-6 mg/ml microgels: trypsin activity on the BAEE substrate is reduced as microgel concentration increases
